The target of experiment [1] is PSMGFR peptide (SEQ ID NO: 1) (Homo sapiens, UniProt P15941). As to the kind of experiment: ELISA binding to PSMGFR peptide. The source says: MUC1* is a cancer-specific antigen produced by proteolytic cleavage of the extracellular domain of MUC1. The extracellular domain of MUC1* comprises about 45 amino acids. Monoclonal antibodies generated against the PSMGFR peptide (SEQ ID NO: 1) bind to MUC1*, as described in WO 2020/146902.
(§1) Cancer selective anti-MUC1* antibodies bind to a membrane proximal conformational epitope within the MUC1* extracellular domain, as described in WO 2020/146902.
(§2) The 3C2B1 epitope was mapped more precisely with additional PSMGFR peptide variants (FIGS. 2A, 2B).
In general terms: ELISA stands for enzyme-linked immunosorbent assay.

For experiment [2], the target named is PSMGFR N-10 peptide (SEQ ID NO: 2) (Homo sapiens, UniProt P15941). As to the kind of experiment: ELISA binding to PSMGFR N-10 peptide.
From the text: as §1, §2

In experiment [3] the test system is pancreatic cancer specimens. As to the kind of experiment: IHC of tissue microarray, pancreatic cancer. The experiment is classed as binding, human. The settings on record: 40 specimens, antibodies at 15 μg/mL. An excerpt:
(§3) Tissue microarrays are typically made up of hundreds of tissue specimens, where each specimen in the array comes from a different patient. The breast cancer array contained patient specimens of all types of invasive breast cancers, including less common forms such as carcinomas with medullary features and papillary carcinomas. The lung cancer array contained specimens from patients diagnosed with squamous cell carcinoma, adenocarcinoma, mucinous adenocarcinoma, adenosquamous carcinoma and large cell carcinoma. The pancreatic cancer tissue microarray contained specimens from patients with ductal adenocarcinomas.
Similar to the lung cancer results, antibody 3C2B1 stained pancreatic cancers better than C2. Of the 40 specimens from 40 different pancreatic cancer patients, 27 were positively stained by C2, 3C2B1, or both. Eighteen (18) stained more robustly with 3C2B1 than C2 or were not stained by C2 at all. One specimen stained slightly better with C2 and 8 specimens stained essentially the same with either antibody.
Cancerous tissue arrays were purchased from Tissue Array (Derwood, MD). After deparaffinization, antigen retrieval (pH 6.0) was performed for 10 min. The sections incubated in blocking buffer (10% normal goat serum and 5% BSA in TBS) at room temperature for 1 hr before incubating in either C2 or 3C2B1 in 1% BSA-TBS overnight at 4° C. […]

Experiment [4] concerns OE19 esophageal cancer cells. Put plainly: Antibody internalization (pHrodo Deep Red), OE19. It is filed as cell-based. Here is the method:
Internalization of antibody 3C2B1 into HPAFII pancreatic cancer cells (FIGS. 5A-5G) and OE19 esophageal cancer cells (FIGS. 5H-5N) was detectable after 8 hours and nearly complete at 16 hours. The results are quantified in FIG. 5O.
Antibodies C2 and 3C2B1 were coupled to a pH sensitive fluorophore using the pHrodo Deep Red TFP Ester kit (Thermo cat #P35356), according to manufacturer instructions. Cancer cells were seeded at ˜50,000 cells/well onto μ-Slide 8-well tissue culture-treated, chambered coverslip wells (Ibidi 80806) in their recommended media with 10% FBS. Cells were cultured for 48 hours. Slides were transferred into microscope chamber (37° C.—5% CO2) and equilibrated for ˜30 minutes. The pHrodo Deep Red coupled antibody was then diluted to a concentration of 200 to 300 μg/mL into pre-warmed media supplemented with 10% FBS. Media was removed from the chamber slides and the diluted antibodies were separately added. […]
(§4) Internalization of the fluorescently labeled antibodies was quantified as follows. […] The integrated pixel density (mean gray-scale value×area) was then measured by the ImageJ software. Positively-stained cells were manually counted and the integrated pixel density was divided by the number of positive cells to yield “Pixel Intensity per positive cell”.

Experiment [5] relates to lung cancer specimens. Put plainly: IHC of tissue microarray, lung cancer. The settings on record: 108 specimens, antibodies at 15 μg/mL. The experiment is classed as binding, human.
From the text: as §3
Of the 108 lung cancer specimens, a total of 61 stained positive with C2, 3C2B1, or both. […] The converse, C2 staining better than 3C2B1, was true in only 5 of the 108 specimens, and these specimens stained weakly with both antibodies. A total of 37 specimens were stained essentially the same with 3C2B1 and C2 antibody.
Cancerous tissue arrays were purchased from Tissue Array (Derwood, MD). After deparaffinization, antigen retrieval (pH 6.0) was performed for 10 min. The sections incubated in blocking buffer (10% normal goat serum and 5% BSA in TBS) at room temperature for 1 hr before incubating in either C2 or 3C2B1 in 1% BSA-TBS overnight at 4° C. In this particular assay, both antibodies were used at a concentration of 15 μg/mL. […]

For experiment [6], the system named is H1975 lung cancer cells (H1975-wt). As to the kind of experiment: Antibody internalization (pHrodo Deep Red), H1975-wt. The conditions noted are these: H1975-wt cells. The experiment is classed as cell-based, human. As to the method: Antibodies C2 and 3C2B1 were tested for their ability to be internalized by H1975 lung cancer cells (H1975-wt) and H1975 cells that were engineered to express high levels of a recombinant MUC1* polypeptide with a 45 amino acid extracellular domain (H1975-MUC1*45). In contrast to the T47D breast cancer cells, H1975-wt cells internalized 3C2B1 faster than they internalized C2 (FIGS. 4A1-4A28, 4C1-4C28 and 4E). Two (2) hours post incubation with H1975-wt cells, […] the cells had internalized C2. […] Similar to the T47D cells, MUC1*45 expression increased the internalization rate of C2 and decreased the internalization rate of 3C2B1 (FIGS. 4B1-4B28, 4D1-4D28 and 4E).
Antibodies C2 and 3C2B1 were coupled to a pH sensitive fluorophore using the pHrodo Deep Red TFP Ester kit (Thermo cat #P35356), according to manufacturer instructions. Cancer cells were seeded at ˜50,000 cells/well onto μ-Slide 8-well tissue culture-treated, chambered coverslip wells (Ibidi 80806) in their recommended media with 10% FBS. Cells were cultured for 48 hours. Slides were transferred into microscope chamber (37° C.—5% CO2) and equilibrated for ˜30 minutes. The pHrodo Deep Red coupled antibody was then diluted to a concentration of 200 to 300 μg/mL into pre-warmed media supplemented with 10% FBS. Media was removed from the chamber slides and the diluted antibodies were separately added. Fluorescent (655 nm) and phase contrast images at were collected every 10 min for 12h or 16 h with a Leica Thunder Live Cell 3D microscope.
Internalization of the fluorescently labeled antibodies was quantified as follows. Images were imported into ImageJ. The selection tool was used to draw a region of interest (ROI) on the image. The integrated pixel density (mean gray-scale value×area) was then measured by the ImageJ software. Positively-stained cells were manually counted and the integrated pixel density was divided by the number of positive cells to yield “Pixel Intensity per positive cell”.

Experiment [7] deals with PSMGFR N-30 (SEQ ID NO: 157) (Homo sapiens, UniProt P15941). As to the kind of experiment: Epitope mapping, binding to PSMGFR N-30 peptide.
From the text: FIG. 2B quantifies binding of the 3C2B1 anti-MUC1* antibody to the peptides of FIG. 2A.
as §2

In experiment [8] the test system is T47D-MUC1*45 cells. As to the kind of experiment: Antibody internalization (pHrodo Deep Red), T47D-MUC1*45. It is filed as cell-based, human. As to the method:
Antibodies C2 and 3C2B1 were tested for their ability to be internalized by T47D breast cancer cells (T47D-wt) or T47D cells that were engineered to express high levels of a recombinant MUC1* polypeptide with a 45 amino acid extracellular domain (T47D-MUC1*45), as described in WO2010042562 and WO2010042891. […] C2 internalization was detected within 2.5 hours in T47D-wt cells (FIGS. 3A-3F) and was increased by MUC1*45 expression (FIGS. 3G-3L). […] Unexpectedly, MUC1*45 expression inhibited 3C2B1 internalization (FIG. 3S-3X).
Antibodies C2 and 3C2B1 were coupled to a pH sensitive fluorophore using the pHrodo Deep Red TFP Ester kit (Thermo cat #P35356), according to manufacturer instructions. Cancer cells were seeded at ˜50,000 cells/well onto μ-Slide 8-well tissue culture-treated, chambered coverslip wells (Ibidi 80806) in their recommended media with 10% FBS. Cells were cultured for 48 hours. Slides were transferred into microscope chamber (37° C.—5% CO2) and equilibrated for ˜30 minutes. […]
as §4

Chain of PSMGFR N-10 peptide (SEQ ID NO: 2) (P15941 1120-1154 limits assumed): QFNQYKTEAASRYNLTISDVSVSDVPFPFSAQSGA
Chain of PSMGFR peptide (SEQ ID NO: 1) (P15941 1110-1154): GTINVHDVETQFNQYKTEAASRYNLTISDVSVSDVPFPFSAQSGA

B1: 3C2B1: anti-MUC1* monoclonal antibody that bound to the PSMGFR peptide (antibody, V domains shown)
VH: EVMLVESGGGLVKPGGSLKLSCAASGITFSTYTMSWVRQTPEKRLEWVATISTGGDKTYYSDSVKGRFTISRDNAKNNLYLQMSSLRSEDTALYYCARGTTAMYYYAMDYWGQGTSVTVSS
VL: DIVLTQSPASLAVSLGQRATISCRASKSISTSDYNYIHWYQQKPGQPPKLLIYLASNLESGVPARFSGSGSGTDFTLNIHPVEEEDAATYYCQHSRELPLTFGAGTKLELK
Turning to B1, the “binding to the PSMGFR 45mer peptide” value in experiment [1] is recorded as “bind”. The “binding to PSMGFR N-10” value in experiment [2] is “bind”. In addition, in experiment [3], the “3C2B1 > C2 (number of specimens stained better with 3C2B1)” value stood at 18. Moreover, in experiment [4], the “time after which internalization was detectable” value amounted to 8 h and the “time at which internalization was nearly complete” value was 16 h. Also, in experiment [5], the “3C2B1 > C2 (number of specimens stained better with 3C2B1)” value is given as 19. In addition, in experiment [6], the “internalization rate compared to C2” value is recorded as “faster” and the “time by which essentially all the cells had internalized the antibody” value is not above 6 h. Also, the “fraction of cells that had internalized antibody” value in experiment [6] (2 hours post incubation) is recorded as “about one third”. In experiment [6] (by 4 hours), the “fraction of cells that had internalized antibody” value is given as “more than a half”. In experiment [7], the “binding to N-30 variant PSMGFR peptide” value is “bound”. Further, the “effect of MUC1*45 expression on internalization” value in experiment [8] (T47D-MUC1*45 vs T47D-wt) is listed as “inhibited”. Further, the “fraction of cells that internalized detectable antibody” value in experiment [8] (T47D-MUC1* cells, after 14 hours) is listed as “Less than half”.

These data come from patent US20260137799A1, “ANTI-MUC1* ANTIBODY DRUG COMPLEXES AND USES THEREOF” (Minerva Biotechnologies Corporation, priority 2023, published 2026).
